This note sets out measurements from paper PMC12819146.

Assay [1] concerns the target PtuA-E396Q of retron Ec78 (ATPase-deficient mutant), as expressed from the Ec78 operon (E. coli ECONIH5). As to the kind of experiment: cryo-EM structure.
In assay [2] the target is PtuA of retron Ec78, wild type, His-Sumo tagged (E. coli ECONIH5). Briefly: SEC. For orientation: In gel filtration, larger molecules generally elute earlier.
Assay [3] addresses PtuA-Q361L of retron Ec78, His-Sumo tagged, co-expressed with PtuB without the retron (E. coli ECONIH5). Briefly: cryo-EM structure.

For the substance “PtuA-E396Q of retron Ec78 (ATPase-deficient mutant), as expressed from the Ec78 operon (enzyme)”, the stoichiometry N (usually a count of units in the complex or per binding partner) in assay [1] is 4.
In assay [2], “PtuA of retron Ec78, wild type, His-Sumo tagged (enzyme)” displayed a stoichiometry N of 4.
In turn, “PtuB of retron Ec78 with C-terminal His-tag, as expressed from the Ec78 operon (enzyme)” came in with a stoichiometry N (PtuB subunits for four PtuA subunits) in assay [1] of 2.
“PtuA-Q361L of retron Ec78, His-Sumo tagged, co-expressed with PtuB without the retron (enzyme)” gave a stoichiometry N in assay [3] of 4.
For the substance “PtuB of retron Ec78, co-expressed with His-Sumo-PtuA from pRSF-Duet (enzyme)”, in assay [3], the stoichiometry N (PtuB subunits for four PtuA subunits) worked out at 2.
In assay [1], “Reverse transcriptase of retron Ec78 (enzyme)” returned a stoichiometry N (RT for four PtuA subunits) of 2 and a stoichiometry N (RT–ncRNA–msDNA for four PtuA subunits) of 1.
